Results: patent publication US20190367589A1 (CYTOMX THERAPEUTICS, published 2019)

B1: 346.8 (Fab, V domains shown)
VH: EVQLLESGGGLVQPGGSLRLSCAASGFTFSSYAMSWVRQAPGKGLEWVSSIEQMGWQTYYADSVKGRFTISRDNSKNTLYLQMNSLRAEDTAVYYCAKHIGRTNPFDYWGQGTLVTVSS
VL: DIQMTQSPSSLSASVGDRVTITCRASQSISSYLNWYQQKPGKAPKLLIYAASSLQSGVPSRFSGSGSGTDFTLTISSLQPEDFATYYCQQSVVAPLTFGQGTKVEIKR
notes: also called Lc8/Hc8
B2: 346.24 (Fab, V domains shown)
VH: EVQLLESGGGLVQPGGSLRLSCAASGFTFSSYAMSWVRQAPGKGLEWVSSIEEMGWQTLYADSVKGRFTISRDNSKNTLYLQMNSLRAEDTAVYYCAKSAAAFDYWGQGTLVTVSS
VL: B1 VL
notes: also called Lc24/Hc24

Legend:
Experiment in all cases: phage ELISA, ligand coated
[1] = molecular target: T1, human Jagged 1-Fc (extracellular domain of human Jagged 1 fused to the Fc portion of human IgG1); R&D Systems … (human, UniProt P78504 34-1067)
T1 construct: extracellular domain; Bought reagent; also called hJag1; h Jagged 1; not shown: Fc portion of human IgG1
Excerpt: (§1) Jagged ligands were adsorbed to the wells of a 96-well ELISA plate, each ligand on a separate plate. Phage were applied to correlative wells on each plate and allowed to bind. Bound phage were visualized with an anti-M13-HRP conjugate and developed with the chromogenic substrate TMB. Also shown are the SEQ ID NOs for the each of these isolates.

[2] = molecular target: T2, rat Jagged 1-Fc (R&D Systems Cat #599-JG-100) (rat, UniProt Q63722 34-1067, limits assumed)
T2 construct: Bought reagent; also called rJag1; rJAG1; not shown: Fc part
Excerpt: as §1

[3] = molecular target: T3, human Jagged 2-Fc (R&D Systems Cat #1726-JG-050) (human, UniProt Q9Y219 27-1080, limits assumed)
T3 construct: Bought reagent; also called hJag2; h Jagged 2; not shown: Fc part
Excerpt: as §1

T3 sequence (Q9Y219 27-1080 limits assumed): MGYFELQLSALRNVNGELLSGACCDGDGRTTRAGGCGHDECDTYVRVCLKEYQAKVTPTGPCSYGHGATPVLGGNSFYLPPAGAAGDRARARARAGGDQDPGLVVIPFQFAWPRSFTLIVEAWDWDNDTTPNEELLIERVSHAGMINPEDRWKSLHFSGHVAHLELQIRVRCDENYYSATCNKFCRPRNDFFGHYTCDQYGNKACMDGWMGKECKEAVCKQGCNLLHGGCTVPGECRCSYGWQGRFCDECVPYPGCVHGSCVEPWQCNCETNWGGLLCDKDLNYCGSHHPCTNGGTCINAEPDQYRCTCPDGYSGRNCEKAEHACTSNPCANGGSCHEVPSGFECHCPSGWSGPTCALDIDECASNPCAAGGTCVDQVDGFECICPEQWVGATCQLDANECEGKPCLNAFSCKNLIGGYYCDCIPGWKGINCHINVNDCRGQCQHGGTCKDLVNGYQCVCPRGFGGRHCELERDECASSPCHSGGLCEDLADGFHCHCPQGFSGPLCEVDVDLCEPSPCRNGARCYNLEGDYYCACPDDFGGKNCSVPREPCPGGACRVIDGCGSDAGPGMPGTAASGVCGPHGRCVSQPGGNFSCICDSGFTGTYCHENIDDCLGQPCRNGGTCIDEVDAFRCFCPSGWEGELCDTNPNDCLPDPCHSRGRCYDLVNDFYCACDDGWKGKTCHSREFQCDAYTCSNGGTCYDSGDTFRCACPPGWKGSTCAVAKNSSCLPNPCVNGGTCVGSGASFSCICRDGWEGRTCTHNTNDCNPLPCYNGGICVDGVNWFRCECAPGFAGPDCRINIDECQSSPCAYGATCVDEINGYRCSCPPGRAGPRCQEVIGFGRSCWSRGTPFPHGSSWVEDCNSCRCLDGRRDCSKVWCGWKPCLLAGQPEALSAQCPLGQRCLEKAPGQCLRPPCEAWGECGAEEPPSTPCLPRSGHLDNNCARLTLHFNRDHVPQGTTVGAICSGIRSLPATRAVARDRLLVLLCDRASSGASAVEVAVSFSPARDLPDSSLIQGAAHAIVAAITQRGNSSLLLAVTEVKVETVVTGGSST

| Binder | binding result [1] | binding result [2] | binding result [3] |
| --- | --- | --- | --- |
| B1 | binds | binds |  |
| B2 | binds |  | binds |
